Experimental findings from patent publication US20190321455A1 (KOREA RESEARCH INSTITUTE OF BIOSCIENCE AND BIOTECHNOLOGY, published 2019) are described below.

Assay [1] deals with T1, Strep-tagged EPRS mono-phosphomimetic S990D (Homo sapiens (Human), UniProt P07814 1-1512).
T1 construct: Expressed in 293T cells; also called EPRS S990D; not shown: Strep tag
The assay is described as follows: Strep precipitation from 293T cells, immunoblot.

In assay [2] the target is T2, His-tagged EPRS (aa 1-168; GST-like domain alone), purified from E. coli (Homo sapiens (Human), UniProt P07814 1-168).
T2 construct: not shown: hexahistidine tag
T2 sequence: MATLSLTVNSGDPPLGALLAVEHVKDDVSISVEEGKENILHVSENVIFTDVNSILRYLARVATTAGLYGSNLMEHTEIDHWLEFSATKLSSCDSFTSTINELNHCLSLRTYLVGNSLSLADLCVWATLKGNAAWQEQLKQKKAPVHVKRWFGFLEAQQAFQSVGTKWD
The assay is described as follows: in vitro His-tag (Ni-NTA) precipitation with purified proteins.

Assay [3] addresses T3, His-tagged EPRS (aa 1-196), purified from E. coli (Homo sapiens (Human), UniProt P07814 1-196).
T3 construct: also called GST and L1 regions of EPRS; not shown: hexahistidine tag
T3 sequence: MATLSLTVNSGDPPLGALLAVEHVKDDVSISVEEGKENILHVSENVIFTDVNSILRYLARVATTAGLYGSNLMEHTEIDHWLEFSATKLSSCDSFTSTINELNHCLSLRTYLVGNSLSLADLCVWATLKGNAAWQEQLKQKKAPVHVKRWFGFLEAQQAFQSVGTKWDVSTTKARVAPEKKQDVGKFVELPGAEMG
Briefly: in vitro His-tag (Ni-NTA) precipitation with purified proteins, Coomassie.

The target of assay [4] is T4, EPRS, endogenous protein of U937 cells (human, UniProt P07814 1-1512, phospho-Ser990 induced by PR8 infection; phospho-Ser886 also detected).
T4 construct: Endogenous protein immunoprecipitated with anti-EPRS antibody; also called glutamyl-prolyl-tRNA synthetase
Briefly: endogenous co-IP with anti-EPRS antibody from PR8-infected U937 cells, anti-GAPDH immunoblot. Background: Immunoblotting shows a protein as a band on a membrane.

In assay [5] the target is T5, Strep-EPRS (Strep-tagged full-length glutamyl-prolyl-tRNA synthetase, wild type) (Homo sapiens (Human), UniProt P07814 1-1512).
T5 construct: Expressed in HEK293T cells and pulled down with Strep-Tactin; Mass spectrometry found phospho-Ser886, and phospho-Ser990 after PR8 infection; also called Strep-EPRS WT; not shown: Strep tag
Briefly: Strep-EPRS complexes from PR8-infected 293T cells, mass spectrometry.

Assay [6] addresses T5, Strep-EPRS (Strep-tagged full-length …). The assay is described as follows: Strep precipitation of 293T lysates expressing Strep-EPRS and forms of GST-PCBP2, anti-GST immunoblot.
Assay [7] deals with T6, MAVS-FLAG (mitochondrial antiviral-signaling protein expressed in 293T cells) (UniProt Q7Z434 1-540).
T6 construct: also called exogenous MAVS; not shown: FLAG tag
T6 sequence (Q7Z434 whole entry): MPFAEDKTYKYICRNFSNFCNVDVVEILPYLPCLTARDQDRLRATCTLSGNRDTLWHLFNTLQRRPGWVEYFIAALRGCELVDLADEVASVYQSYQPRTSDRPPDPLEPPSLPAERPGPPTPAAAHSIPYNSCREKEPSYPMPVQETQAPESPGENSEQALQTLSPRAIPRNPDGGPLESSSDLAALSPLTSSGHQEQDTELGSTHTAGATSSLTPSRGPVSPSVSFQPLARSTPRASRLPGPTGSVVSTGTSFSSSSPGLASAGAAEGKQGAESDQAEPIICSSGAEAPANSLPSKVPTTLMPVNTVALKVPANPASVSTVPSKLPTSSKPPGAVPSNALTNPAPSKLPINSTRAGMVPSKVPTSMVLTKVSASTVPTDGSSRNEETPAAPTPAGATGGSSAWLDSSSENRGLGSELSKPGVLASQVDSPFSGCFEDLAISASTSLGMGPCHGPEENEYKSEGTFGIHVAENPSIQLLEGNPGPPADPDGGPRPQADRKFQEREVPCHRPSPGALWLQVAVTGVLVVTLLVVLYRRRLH
The assay is described as follows: anti-FLAG co-IP of 293T lysates expressing MAVS and forms of GST-PCBP2, anti-GST immunoblot.

The target of assay [8] is T4, EPRS, endogenous protein of U937 cells. Briefly: endogenous co-IP with anti-EPRS antibody, PR8-infected U937 cells.
The target in assay [9] is T7, EPRS, endogenous protein of RAW264.7 cells (UniProt Q8CGC7 1-1512, phospho-Ser990 induced by PR8 infection).
T7 construct: Endogenous protein in cell lysates; The mouse origin is inferred from the cell line
T7 sequence (Q8CGC7 whole entry): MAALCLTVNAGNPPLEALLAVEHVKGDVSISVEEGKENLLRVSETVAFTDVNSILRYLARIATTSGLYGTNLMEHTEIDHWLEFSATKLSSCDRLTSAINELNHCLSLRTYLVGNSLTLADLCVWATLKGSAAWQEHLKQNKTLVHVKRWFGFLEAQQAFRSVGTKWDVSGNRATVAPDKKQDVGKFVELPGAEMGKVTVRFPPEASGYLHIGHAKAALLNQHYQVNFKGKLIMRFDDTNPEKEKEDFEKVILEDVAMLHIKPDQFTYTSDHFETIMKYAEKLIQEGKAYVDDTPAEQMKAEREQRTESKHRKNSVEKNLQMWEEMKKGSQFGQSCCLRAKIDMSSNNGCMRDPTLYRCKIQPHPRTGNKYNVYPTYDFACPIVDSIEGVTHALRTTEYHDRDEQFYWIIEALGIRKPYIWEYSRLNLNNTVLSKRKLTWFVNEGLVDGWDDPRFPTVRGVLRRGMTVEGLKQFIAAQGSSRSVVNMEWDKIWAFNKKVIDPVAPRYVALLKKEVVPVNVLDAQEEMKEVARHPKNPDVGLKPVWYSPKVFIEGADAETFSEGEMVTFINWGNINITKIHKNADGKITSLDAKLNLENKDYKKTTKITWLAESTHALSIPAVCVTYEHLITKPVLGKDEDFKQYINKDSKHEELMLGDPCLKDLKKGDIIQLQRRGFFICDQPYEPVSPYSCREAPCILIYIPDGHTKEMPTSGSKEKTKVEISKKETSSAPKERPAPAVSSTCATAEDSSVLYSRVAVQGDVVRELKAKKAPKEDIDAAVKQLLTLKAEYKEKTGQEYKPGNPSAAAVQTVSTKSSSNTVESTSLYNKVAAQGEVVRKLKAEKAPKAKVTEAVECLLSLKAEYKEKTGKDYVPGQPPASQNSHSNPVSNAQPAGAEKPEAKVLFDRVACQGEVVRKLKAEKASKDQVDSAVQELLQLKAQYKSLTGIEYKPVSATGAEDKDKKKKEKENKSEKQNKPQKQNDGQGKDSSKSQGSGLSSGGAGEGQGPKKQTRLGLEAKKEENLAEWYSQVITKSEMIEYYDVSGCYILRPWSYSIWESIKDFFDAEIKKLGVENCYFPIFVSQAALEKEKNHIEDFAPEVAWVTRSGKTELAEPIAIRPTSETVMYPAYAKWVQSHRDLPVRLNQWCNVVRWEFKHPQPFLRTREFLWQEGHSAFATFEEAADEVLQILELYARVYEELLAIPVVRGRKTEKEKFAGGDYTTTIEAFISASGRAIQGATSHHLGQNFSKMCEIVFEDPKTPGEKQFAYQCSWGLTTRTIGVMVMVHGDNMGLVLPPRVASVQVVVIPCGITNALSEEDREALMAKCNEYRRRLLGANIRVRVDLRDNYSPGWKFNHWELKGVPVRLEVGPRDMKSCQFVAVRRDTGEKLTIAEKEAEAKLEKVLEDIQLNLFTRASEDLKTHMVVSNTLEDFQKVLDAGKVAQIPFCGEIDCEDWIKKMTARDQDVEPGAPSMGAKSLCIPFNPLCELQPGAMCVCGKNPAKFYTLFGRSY
The assay is described as follows: endogenous immunoprecipitation with anti-PCBP2 antibody, PR8-infected RAW264.7 cells.

The target in assay [10] is T8, MAVS, endogenous protein of RAW264.7 cells (UniProt Q8VCF0 1-503).
T8 sequence (looked up): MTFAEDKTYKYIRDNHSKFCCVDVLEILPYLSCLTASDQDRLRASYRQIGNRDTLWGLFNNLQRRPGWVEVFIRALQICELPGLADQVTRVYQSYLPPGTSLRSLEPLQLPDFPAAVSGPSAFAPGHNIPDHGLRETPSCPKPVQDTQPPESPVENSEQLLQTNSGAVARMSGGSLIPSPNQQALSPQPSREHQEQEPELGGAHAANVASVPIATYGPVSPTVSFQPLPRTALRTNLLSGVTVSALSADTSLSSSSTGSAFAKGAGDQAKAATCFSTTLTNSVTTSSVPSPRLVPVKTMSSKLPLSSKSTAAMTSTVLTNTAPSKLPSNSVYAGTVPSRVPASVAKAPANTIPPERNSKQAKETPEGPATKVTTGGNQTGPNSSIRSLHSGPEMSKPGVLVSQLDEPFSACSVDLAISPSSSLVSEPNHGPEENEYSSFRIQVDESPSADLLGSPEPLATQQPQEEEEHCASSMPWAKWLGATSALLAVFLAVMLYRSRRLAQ
The description is as above.

B1: AIMP3 (ARS-interacting multifunctional protein 3), endogenous protein of human cells (U937, 293T) (other, UniProt O43324 2-174, looked up)
chain: AAAAELSLLEKSLGLSKGNKYSAQGERQIPVLQTNNGPSLTGLTTIAAHLVKQANKEYLLGSTAEEKAIVQQWLEYRVTQVDGHSSKNDIHTLLKDLNSYLEDKVYLTGYNFTLADILLYYGLHRFIVDLTVQEKEKYLNVSRWFCHIQHYPGIRQHLSSVVFIKNRLYTNSH
B1: in [1], the binding result is “no binding”.

B2: GST-fused PCBP2 KH1 (aa 11-82), purified from E. coli (other, UniProt Q15366 11-82, looked up)
chain: NVTLTIRLLMHGKEVGSIIGKKGESVKKMREESGARINISEGNCPERIITLAGPTNAIFKAFAMIIDKLEED
notes: range 11-82; also called PCBP2 KH1 (aa 11-82) domain; not shown: GST
Regarding B2, the binding result was “no binding” in assay [2] and “binds” in assay [3].

B3: GAPDH (glyceraldehyde-3-phosphate dehydrogenase), endogenous protein of human cells (U937, 293T) (enzyme)
chain: not shown
For B3, the binding result in assay [4] and in assay [5] was “no binding” each time.

B4: GST-PCBP2 N-terminal KH1 domain (aa 1-81), expressed in 293T cells (other, UniProt Q15366 1-81, looked up)
chain: MDTGVIEGGLNVTLTIRLLMHGKEVGSIIGKKGESVKKMREESGARINISEGNCPERIITLAGPTNAIFKAFAMIIDKLEE
notes: range 1-81; also called PCBP2 KH1; not shown: GST tag
Take B4: the binding result in [6] and in assay [7] was “binds” in each case.

B5: MRS (methionyl-tRNA synthetase), endogenous protein of 293T cells (enzyme, UniProt P56192 1-900, looked up)
chain: MRLFVSDGVPGCLPVLAAAGRARGRAEVLISTVGPEDCVVPFLTRPKVPVLQLDSGNYLFSTSAICRYFFLLSGWEQDDLTNQWLEWEATELQPALSAALYYLVVQGKKGEDVLGSVRRALTHIDHSLSRQNCPFLAGETESLADIVLWGALYPLLQDPAYLPEELSALHSWFQTLSTQEPCQRAAETVLKQQGVLALRPYLQKQPQPSPAEGRAVTNEPEEEELATLSEEEIAMAVTAWEKGLESLPPLRPQQNPVLPVAGERNVLITSALPYVNNVPHLGNIIGCVLSADVFARYSRLRQWNTLYLCGTDEYGTATETKALEEGLTPQEICDKYHIIHADIYRWFNISFDIFGRTTTPQQTKITQDIFQQLLKRGFVLQDTVEQLRCEHCARFLADRFVEGVCPFCGYEEARGDQCDKCGKLINAVELKKPQCKVCRSCPVVQSSQHLFLDLPKLEKRLEEWLGRTLPGSDWTPNAQFITRSWLRDGLKPRCITRDLKWGTPVPLEGFEDKVFYVWFDATIGYLSITANYTDQWERWWKNPEQVDLYQFMAKDNVPFHSLVFPCSALGAEDNYTLVSHLIATEYLNYEDGKFSKSRGVGVFGDMAQDTGIPADIWRFYLLYIRPEGQDSAFSWTDLLLKNNSELLNNLGNFINRAGMFVSKFFGGYVPEMVLTPDDQRLLAHVTLELQHYHQLLEKVRIRDALRSILTISRHGNQYIQVNEPWKRIKGSEADRQRAGTVTGLAVNIAALLSVMLQPYMPTVSATIQAQLQLPPPACSILLTNFLCTLPAGHQIGTVSPLFQKLENDQIESLRQRFGGGQAKTSPKPAVVETVTTAKPQQIQALMDEVTKQGNIVRELKAQKADKNEVAAEVAKLLDLKKQLAVAEGKPPEAPKGKKKK
notes: 293T cells are a human line
Regarding B5, the binding result in assay [1] is “no binding”.

B6: PCBP2, endogenous protein of human cells (293T, U937) (other, UniProt Q15366 1-365, looked up)
chain: MDTGVIEGGLNVTLTIRLLMHGKEVGSIIGKKGESVKKMREESGARINISEGNCPERIITLAGPTNAIFKAFAMIIDKLEEDISSSMTNSTAASRPPVTLRLVVPASQCGSLIGKGGCKIKEIRESTGAQVQVAGDMLPNSTERAITIAGIPQSIIECVKQICVVMLETLSQSPPKGVTIPYRPKPSSSPVIFAGGQDRYSTGSDSASFPHTTPSMCLNPDLEGPPLEAYTIQGQYAIPQPDLTKLHQLAMQQSHFPMTHGNTGFSGIESSSPEVKGYWGLDASAQTTSHELTIPNDLIGCIIGRQGAKINEIRQMSGAQIKIANPVEGSTDRQVTITGSAASISLAQYLINVRLSSETGGMGSS
notes: also called PBP2
Take B6: the binding result in assay [8] was “binds”.

B7: PCBP2, endogenous protein of RAW264.7 cells (other, UniProt Q61990 1-362, looked up)
chain: MDTGVIEGGLNVTLTIRLLMHGKEVGSIIGKKGESVKKMREESGARINISEGNCPERIITLAGPTNAIFKAFAMIIDKLEEDISSSMTNSTAASRPPVTLRLVVPASQCGSLIGKGGCKIKEIRESTGAQVQVAGDMLPNSTERAITIAGIPQSIIECVKQICVVMLESPPKGVTIPYRPKPSSSPVIFAGGQDRYSTGSDSASFPHTTPSMCLNPDLEGPPLEAYTIQGQYAIPQPDLTKLHQLAMQQSHFPMTHGNTGFSGIESSSPEVKGYWAGLDASAQTTSHELTIPNDLIGCIIGRQGAKINEIRQMSGAQIKIANPVEGSTDRQVTITGSAASISLAQYLINVRLSSETGGMGSS
notes: also called PBP2
With B7, the binding result in assay [9] and in assay [10] was “binds” each time.

B8: GST-PCBP2 linker region, expressed in 293T cells (other, UniProt Q15366 168-279, looked up)
chain: ETLSQSPPKGVTIPYRPKPSSSPVIFAGGQDRYSTGSDSASFPHTTPSMCLNPDLEGPPLEAYTIQGQYAIPQPDLTKLHQLAMQQSHFPMTHGNTGFSGIESSSPEVKGYW
notes: domain: linker region; not shown: GST tag
On to B8, for which the binding result in assay [6] was “no binding”.
